The values that follow come from the domain aggregation screens of Martell et al. (2025).

This data set can be described thus: soluble fraction after stress (log2 fold change); higher = more stays soluble; pooled small domains, quantitative proteomics. The conditions noted are these: stress: pH 4. In short, it runs like this:
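Aggregation propensity is read out as the fold change in how much of each domain remains soluble after acid stress. The custom small-domain libraries were pooled, held at pH 4 and analysed with high-throughput quantitative proteomics. On the log2 scale used, higher values mean more of the domain stayed soluble.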

Some results are limits rather than exact numbers.

Consider “HMIMTEKEKKLLNRYIMHDTIHKLYHEQNKSMRWIADNLGINFRTVQKYLDMDSGEFQKYSESISNR”, for which the “soluble fraction (log2)” value is -0.141.

Turning to “HMIMTIYEYIARNNPTGAKRVIESFGYVVTQPKKMGDNLRMLVAQEGEPALKAVVDLHPDKDLILEV”, the “soluble fraction (log2)” value is -1.93.

On to “HMINAQETEIYRFLIEKANRLYSMVLGLKREELMTATRQFEEEVKHSSIHHLPKIYQAFSSYLELLERG”, for which the “soluble fraction (log2)” value was -0.207.

On to “HMINDKLQHLFSLFPAMDKELKRKGITRQILWVEYKKQYPLGFGRSQFNSYFAAWKAQVSPS”, for which the “soluble fraction (log2)” value was 0.204.

For the sequence “HMINFLSKREIEVLRLVADGLSNRDVGQYLFISESTVKRHLSTIYEKLAVKSRTQAIDHARRADL”, the “soluble fraction (log2)” value is -1.39.

Consider “HMINGTITFYDDTTLKGELSSLDTKYLFIIPNGLVMPEKIAVSDIEYFNLDNGITLIQDGISKQTY”, for which the “soluble fraction (log2)” value was -1.11.

On to “HMINLGDLEVGHTYHTRMPILQNDLKYSHKSPIQIVAEHSIVYGVRVYIGFLNEHRVLVTADDV”, for which the “soluble fraction (log2)” value was -0.269.

As for “HMINLRTALNNAGVMQKELSDILYMTPQDVNRRFSGVTKWKPLEKRAIMQFLEDRGFEYTEEQLF”, the “soluble fraction (log2)” value was -0.883.

Consider “HMINLVPFELKFITAQVLDDIIKKIGINADTIILDINPKKIWVYAGEQELSDIQNIVKNVDVEDNI”, for which the “soluble fraction (log2)” value was -2.17.

With “HMINVLTPKQIEATTIAVKYGYYENPRTVSMRELSEISGIARSTLQEHLSKAEAALMILAAKSQL”, the “soluble fraction (log2)” value was -0.0956.

“HMINVVDEVIKHLETNIISGFWAPGQKIDSEATLSKQLNVSRASIHTAIQQLIATGVLESFQGKGTFVRS”: the “soluble fraction (log2)” value is -0.226.

On to “HMIPDGKWKEDPISDGQKNFINSLIEQAIDAGQDELGAEAKKYLASGEATKGNASAMIDKLKSAL”, for which the “soluble fraction (log2)” value was 0.398.

“HMIPDMSLELAMSEQTSKGDLYGDLPNDKLALMFNAISKKVPHTDDHKRKMVAIQTILESRAS”: the “soluble fraction (log2)” value was 0.0127.

On to “HMIPEGKWMEDPISEGQIKFIETLIKQAIDSGQDALGAEAKQYLSSGEATKGNASSMIDKLKDAL”, for which the “soluble fraction (log2)” value is -0.479.

“HMIPEILNGYTKWGDDEPFEDHAGPFYMKMMPSTGRHLSAFIPEQRHMNGGGFLHGGMLMSFADYALFVI”: the “soluble fraction (log2)” value was -0.491.

Take “HMIPEKEISYMMPDGFMPKELKIIHITESGRKQIYSAAHKPLDLVNVKAPFVPNTKVQIYINDVPIEELKI”: the “soluble fraction (log2)” value was -0.739.

With “HMIPKDKQAWIALTYIYGVGRTTSMEILKKAQVGEEIRMKDLTEEEVTRIRNIIDKEYEVEGDLRRN”, the “soluble fraction (log2)” value is -0.762.

On to “HMIPNEKEAARWDALTAEHTAKLNALEGDALDKVGSHEDVSIKRAGVGDAAFREKILSRTHPDDLERALST”, for which the “soluble fraction (log2)” value worked out at 0.3.

For the sequence “HMIQHFARKRRQLELAVQRLSGRMAETNGQVTADMQRLIQQVKALVAELSHVFSRAYLRRVLGGVALVIGS”, the “soluble fraction (log2)” value was -0.145.

“HMIQLTDAEFNELVTYIKKNYGINLIKKRLLIEARMYSVLAKHGFTSFTEYINLIKRDPAELNTMLNKLTT”: the “soluble fraction (log2)” value is 0.126.

Regarding “HMIQMRVKVPKNIAGGSLMGAHHFVKSALARTNPGGSTSNYKIQATDGTPLTLGDLTARQYDEVLIISG”, the “soluble fraction (log2)” value is -0.617.

For the sequence “HMIQTKKVTFTVEPTVNFEKINISGIEFKINSGSSITAIYEKNSHNFDEVLDFLKQKGVKILDIVTED”, the “soluble fraction (log2)” value was -0.824.

Take “HMIRILIVDDSAFMRKLLSDVFEEDKNFVVVDTARNGQDAVEKVKRLKPDLVTMDVEMPVMDGLTAVEIIM”: the “soluble fraction (log2)” value is -1.12.

“HMIRSNLAEQAYAQLKALIHDFQLLPGDRFSENEMGTRLGVSRTPVREALFRLRNEGFLEVESKAGWYVK”: the “soluble fraction (log2)” value was -1.73.

As for “HMISAADLQTYLKGMDYPAGREDLVAHAQRNNAPESVITILQGFSDRTYRSAAEVSEEFGRE”, the “soluble fraction (log2)” value was -0.371.

Turning to “HMISADSSKVDTLVQVYSNMKPIQAAQVFEKMDEDLVIEILSRMKKKNAADILNLIKTEKAQVFAEKYA”, the “soluble fraction (log2)” value was -0.0774.

For the sequence “HMISAEPVGEDLFKVAFPFLGGSTVFEKTIEQFIEEHPSKRIDHIYTVPNPLRLKKADALIFYIITEEK”, the “soluble fraction (log2)” value was -1.12.

For the sequence “HMISASDLQTYLKGMDYPARKEDLIVHAQRNNAPESVIAAIRQFSDRTYQSAADVSEEFGKI”, the “soluble fraction (log2)” value is -0.468.

For the sequence “HMISDEELLVSTKKEIMSLATVLTKTDKKDDAIAIMKEYDPAANPNRIKDVNKAKELLERLQKLG”, the “soluble fraction (log2)” value was -0.104.

As for “HMISDISEIEAIIVEVLKVFPNQLQEYLDGKEKILSFFVGQVMQRTKGRANPSLVNEILKEKIKN”, the “soluble fraction (log2)” value is -0.417.

As to “HMISEAEGTILQLLKEADGTLPFTYKSDADEIKKVFGMSKKNFKRTLTELIEAKKIQLLDDAIVL”, the “soluble fraction (log2)” value is -0.0222.

Consider “HMISEKEIKIIEDILARWNGKLTWDDFTSKVAKKLNLPSLSKFTLMGYPEIKQAFLTRKQTLK”, for which the “soluble fraction (log2)” value was -0.382.

In the case of “HMISENFVEAKILLTEDNRPKSLEILKDIIRQHDKVYSPLSLFLILDEDLEENKEIILEYFDLVLS”, the “soluble fraction (log2)” value is -1.38.

“HMISESLLDEIPGLGETRRNSLLREFGSVAMIRKASAEEIASRVRGIGAEFAAAIHDFLQTH”: the “soluble fraction (log2)” value was 0.0801.

Consider “HMISFHEYLTQLLDEKGLTKAQVITDSNIQKNYGYQIFDGSKTPSRDKVIAIALAMQLTLDEANRLLHLSN”, for which the “soluble fraction (log2)” value was -0.618.

For the sequence “HMISFTDLEHIEKMIENVLYTKTPLNLPPTDAKIRKIEHQIARRYGLNSESFGDEPRRFVVVYPNEERE”, the “soluble fraction (log2)” value amounted to 0.0997.

Take “HMISKAQLFSEEELTELYRATGYQLENDPEIHREQFEALQAVRAKIEYAVPDVQEKLEQEQNLGQQ”: the “soluble fraction (log2)” value is -1.

Consider “HMISKRFQVDEENSNNRVDIFLANNLDSISRGIVQQLILDGKVLVNGETVKRNHLLKTNDEVDISFEI”, for which the “soluble fraction (log2)” value was 0.0466.

Regarding “HMISRDPYDAGAIKRHFSASGLFSSKELAHYLGKSVSTAKNVLSDLQQQGIVEMVGQGPATKYRFI”, the “soluble fraction (log2)” value came to 0.285.

Consider “HMISSRDAAVIGLVENIQRAQLNAIDESSGFKHLMETYNLESKEIALLVGKSRSYVSNSLRLSK”, for which the “soluble fraction (log2)” value is -0.235.

For the sequence “HMISTVFYVDVKGEVHHPGVYQMKAENRVKDLIEAAGGFTPLADDQKLNLAQLLEDQMVIVVPKKGEEV”, the “soluble fraction (log2)” value is -0.221.

With “HMISVTNRTGTGLNDVKVEVFPVGRQMVFSATVFRVESEATNRFSLGELRGSDGTPFNQRVHRPESI”, the “soluble fraction (log2)” value is -0.07.

“HMITAEQENILFEKASDDISNNIINKGIWTKAYSQAGGDESKQKAIYIDLLVNYYKMLIKAGEEFEDI”: the “soluble fraction (log2)” value was -2.05.

Turning to “HMITALLPGTVLIREFDGRDYHVTVATDGRFEMDGHKYPSLSAVAKHITGTQWSGPAFFGLN”, the “soluble fraction (log2)” value is -0.0323.

In the case of “HMITASNYFIEVERIGIETLPETLKKGHDLVVKSTSNGTNWANYQTSEGIKKVIDLYFQKLNEYANTV”, the “soluble fraction (log2)” value was -1.57.

In the case of “HMITDSSEIEAMVDALVKENPGQAEQYKDGNMKVAGWFIGQIMKVSKGKANPQLVGDLLKKKLG”, the “soluble fraction (log2)” value was ≥ 0.43.

On to “HMITERVPVPDLTGMPLMEAIKTLNSSKLQYQVVGSVIEGDENRIIDQTPKPDIMVSEKSIVLLYLETYRG”, for which the “soluble fraction (log2)” value was -0.338.

In the case of “HMITIDADTGKRVYTRKEVADLVGASTQSIRLWEDAGAIPASVRDEGGYRYWYEEDLEAIKAYAS”, the “soluble fraction (log2)” value was -0.411.

Turning to “HMITKAIELAEEAEKETVWLGVWEHNHPAQKFYQSLGFVKTDEHDFYMGNERHTDYTMTKQLK”, the “soluble fraction (log2)” value was -0.958.

Turning to “HMITLKKRRQEAILEIIEKYDLSTQDELLQKLKDSGFDATQATVSRDIKELRLVKTMGANGQYKYAVT”, the “soluble fraction (log2)” value is -0.735.

For “HMITMADKIDTALSEMAANNEKINVSQVAKRLGISNSAIYKFNPEKIPDIQTAQKRQKHKAEAIAVGTEN”, the “soluble fraction (log2)” value came to 0.0504.

“HMITMWYYKKDGNIIGPASARKIASMRELGIITDSTPVSRKRNAKNWETFGGLSEKINLESSQWD”: the “soluble fraction (log2)” value stood at 0.0852.

As to “HMITNEDINIKKLLVVMKDTPLSANEIMDKLNIKSKETLRNMYLDPAIKKGLINLTIPDKPTSKNQKYYK”, the “soluble fraction (log2)” value was found to be 0.22.

For the sequence “HMITNESEIERIVEAIISKNPESIAQYRSGITKVLGFLVGQVMKETKGRANPALVNRIIISKME”, the “soluble fraction (log2)” value amounted to 0.242.

“HMITSELALVKLVVKGANRVEALRVAETFRARALDVTLSSFVFELTGKPSKLDAFIGLMRSLGDTEILKR”: the “soluble fraction (log2)” value is -1.02.

On to “HMIVEIVPSALHGERVDRIVAFILDVSRSVASGLVERGAVHVDGSVETSGKVRLVEGQEVSVDPSQVPG”, for which the “soluble fraction (log2)” value was -0.528.

Turning to “HMIVNEQEQTFIKAMRDDDFNTILELKMKGYQPSDNVLKSLQPDISSTTFIAAAKIFQMERMLK”, the “soluble fraction (log2)” value is ≥ 0.43.

As for “HMIVSVPNVRGMGESKAAAALQNRGLLVSIDYESSTSASQGEVIRQSISPGTEVTKGSSITIIIAVSPN”, the “soluble fraction (log2)” value was -0.0228.

For “HMIVVMQPGATKEQVQAVIDRVAEFGFQTKLAPGAERMVIGVVGSPLPDTLKEALERLPGVEEVIRVSKR”, the “soluble fraction (log2)” value is -0.0989.

“HMIVVTSPQVTDERIAEIVAFIEKHGVQAHVSRGTDRTVIGIIGKADPVLAEHLRSMQGVENVIKIS”: the “soluble fraction (log2)” value was -0.126.

Take “HMIYKLTLLRDLPEAKAGFDFYLRGGLASHDGEEWFSWVTREPIYARLYWLYVEKREEWVLVEETDI”: the “soluble fraction (log2)” value is -2.47.

Regarding “HMIYMIDPNDEIAVKLDEIYQRYLNRTIDPEGLIFFYNQIRNAQMGYSDVEKRILESPEYVSIPK”, the “soluble fraction (log2)” value was -1.23.

In the case of “HMIYQNVINLLKNRLNSSIYNIGDLLPSEKELAEHYDVSRNTLRKALKTLEEEGMIERRHGSGTYLRNK”, the “soluble fraction (log2)” value was determined as 0.0262.

For “HMIYWGTMVDKIYEVLSLAGKPLSLMEIYQQVKVFFPNSTKSSIEASMRLDARHRFKYDVEGHVYSLVD”, the “soluble fraction (log2)” value was -0.368.

“HMIYYTEEELVKRYIDFSNYLGKKEGASDVDFKKYAVEFGIPSRDHYNRKFITLFNLKIKAGYKPIRH”: the “soluble fraction (log2)” value was -1.13.

Consider “HMKAAQDQDQAATLLQKATGVNQDQAKLAATVLFKEQSVTPIRQAIASGDYYQAYQDAKSLQQQ”, for which the “soluble fraction (log2)” value came to 0.22.

In the case of “HMKADIEQVQRAFDTLDPKNQQLVLDAMKAATAELDPNSDQFKTNTEFINDNQKALDRHAKAS”, the “soluble fraction (log2)” value was 0.0627.

In the case of “HMKAGAVFNEGDVLYPKIGGLKLMAAAGEGGKVVATLAKTDEMIYMGEEQSGFVKVESGSGSGWVKKILVA”, the “soluble fraction (log2)” value was found to be 0.202.

For “HMKAGEDAVQKAVLEAVAESAAAVADYKAGSERALNFIVGKVMKKTRGKASAAEVHRLVREEVDR”, the “soluble fraction (log2)” value stood at 0.079.
